Patent US20140107043A1 (INSTITUT PASTEUR, published 2014)
Where no end group is shown, it is not given here. [ ]: non-standard residue; d: D form. Phe(4-CH2COOH) = N[C@@H](Cc1ccc(CC(=O)O)cc1)C(=O)O; GABA = NCCCC(=O)O

How the values were obtained:
Test in all cases: cell-based or functional assay
[1] = target: envelope gp120 of HIV-1-LAI (X4-tropic strain), on virus (HIV-1 strain LAI, UniProt P03377 33-516, limits assumed)
[2] = target: envelope gp120 of HIV-1/Ba-L (R5-tropic strain), on virus (HIV-1 strain Ba-L)
[3] = target: envelope gp120 of HIV-1 SF162 (clade B, R5), on virus (HIV-1 strain SF162, UniProt P19550 32-502)
[4] = target: envelope gp120 of HIV-1 98IN017 (clade C, X4), on virus (HIV-1 strain 98IN017)
[5] = target: envelope gp120 of HIV-1 92HT599 (clade B, X4), on virus (HIV-1 strain 92HT599)
[6] = target: envelope gp120 of HIV-1 92UG029 (clade A, X4), on virus (HIV-1 strain 92UG029)
[7] = target: envelope gp120 of HIV-1 92US723 (clade B, R5/X4), on virus (HIV-1 strain 92US723)
[8] = target: envelope gp120 of HIV-1 96USHIPS4 (clade B, R5/X4), on virus (HIV-1 strain 96USHIPS4)

B1: P3Y (H-gamma-Abu-S-Y-D-Y-S-Y-D-Y-S-Y-D-Y-S-OH) (peptide)
peptide: SYDYSYDYSYDYS
modifications: N-terminal gamma-aminobutyric acid (NH2-(CH2)3-CO-)
> 500 nM: ED50, HIV-1 replication in PBMC [1] | ED70, HIV-1 replication in PBMC [1] | ED90, HIV-1 replication in PBMC [1] | ED50, HIV-1 replication in PBMC [2] | ED70, HIV-1 replication in PBMC [2] | ED90, HIV-1 replication in PBMC [2]

B2: E13 (H-gamma-Abu-(Glu)13-OH) (peptide)
peptide: EEEEEEEEEEEEE
modifications: N-terminal gamma-aminobutyric acid (NH2-(CH2)3-CO-)
> 500 nM: ED50, HIV-1 replication in PBMC [1] | ED70, HIV-1 replication in PBMC [1] | ED90, HIV-1 replication in PBMC [1] | ED50, HIV-1 replication in PBMC [2] | ED70, HIV-1 replication in PBMC [2] | ED90, HIV-1 replication in PBMC [2]

B3: P3YSO3 (H-gamma-Abu-S-YSO3-D-YSO3-S-YSO3-D-YSO3-S-YSO3-D-YSO3-S-OH) (peptide)
peptide: SXDXSXDXSXDXS
modifications: N-terminal gamma-aminobutyric acid (NH2-(CH2)3-CO-); sulfotyrosine (YSO3) at the six X positions of S-X-D-X-S-X-D-X-S-X-D-X-S
> 500 nM: ED50, HIV-1 replication in PBMC [3] | ED70, HIV-1 replication in PBMC [3] | ED90, HIV-1 replication in PBMC [3] | ED50, HIV-1 replication in PBMC [4] | ED70, HIV-1 replication in PBMC [4] | ED90, HIV-1 replication in PBMC [4] | ED50, HIV-1 replication in PBMC [5] | ED70, HIV-1 replication in PBMC [5] | ED90, HIV-1 replication in PBMC [5] | ED50, HIV-1 replication in PBMC [6] | ED70, HIV-1 replication in PBMC [6] | ED90, HIV-1 replication in PBMC [6] | ED50, HIV-1 replication in PBMC [7] | ED70, HIV-1 replication in PBMC [7] | ED90, HIV-1 replication in PBMC [7] | ED50, HIV-1 replication in PBMC [8] | ED70, HIV-1 replication in PBMC [8] | ED90, HIV-1 replication in PBMC [8]

B4: P3pF (H-gamma-Abu-S-pF-D-pF-S-pF-D-pF-S-pF-D-pF-S-OH) (peptide)
peptide: [GABA]S[Phe(4-CH2COOH)]D[Phe(4-CH2COOH)]S[Phe(4-CH2COOH)]D[Phe(4-CH2COOH)]S[Phe(4-CH2COOH)]D[Phe(4-CH2COOH)]S-OH
modifications: N-terminus assumed
SMILES: NCCCC(=O)N[C@@H](CO)C(=O)N[C@@H](Cc1ccc(CC(=O)O)cc1)C(=O)N[C@@H](CC(=O)O)C(=O)N[C@@H](Cc1ccc(CC(=O)O)cc1)C(=O)N[C@@H](CO)C(=O)N[C@@H](Cc1ccc(CC(=O)O)cc1)C(=O)N[C@@H](CC(=O)O)C(=O)N[C@@H](Cc1ccc(CC(=O)O)cc1)C(=O)N[C@@H](CO)C(=O)N[C@@H](Cc1ccc(CC(=O)O)cc1)C(=O)N[C@@H](CC(=O)O)C(=O)N[C@@H](Cc1ccc(CC(=O)O)cc1)C(=O)N[C@@H](CO)C(=O)O
> 500 nM: ED50, HIV-1 replication in PBMC [1] | ED70, HIV-1 replication in PBMC [1] | ED90, HIV-1 replication in PBMC [1] | ED50, HIV-1 replication in PBMC [2] | ED70, HIV-1 replication in PBMC [2] | ED90, HIV-1 replication in PBMC [2]
